Test results reported in paper PMC11661604 (2024).
Like-named read-outs stand apart in the source and are kept apart here.

B1: LA1-3-Fc (Fc fusion)
chain: not shown

Columns and labels:
[1] = target: T1, native Semliki Forest virus (SFV) virion (Semliki Forest virus); assay: SPR
[2] = target: T1, native Semliki Forest virus (SFV) virion; assay: SPR; remark: listed apart in the source

| Binder | Kd [1] [nM] | Kd [2] [nM] |
| --- | --- | --- |
| MRTCRIHEISCGAHSTQCIPVSWRCDGENDCDSGEDEENCGNI (Fc fusion) [LA3-Fc] | 1170 | 1020 |
| MRTCAIHEISCGAHSTQCIPVSWRCDGENDCDSGEDEENCGNI (Fc fusion) [LA3-Fc R114A] | 1580 | – |
| B1 | – | 523 |
| MRTCRIHEISCGAHSTACIPVSWRCDGENDCDSGEDEENCGNI (Fc fusion) [LA3-Fc Q126A] | 11700 | – |
